Data: the domain aggregation screens of Martell et al. (2025)

Experiment: soluble fraction after stress (log2 fold change); higher = more stays soluble; pooled small domains, quantitative proteomics
Conditions: stress: 75 degC
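Also: 20 min heating vs room temperature control held 20 min.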

## HMTPELTAEEREVLSLLGDEPRTLAELIAASGRDYAALSVLLMGLELSQAVRQLPGNRYERF
  soluble fraction (log2): -0.84

## HMFFDKIIVDFLADGSRIDKYISTLYPDISRTHIQRLIAEQFILVNDSVVKSNYKLSTNDVVLIHIPEA
  soluble fraction (log2): -3.01

## HMSKLQETEIPVALEVEKIPGLSNELKQKLLKIKPQTIGQASRISGITPAAISILMIYIKKNESISAVK
  soluble fraction (log2): -1.9

## HMSVTSEIGAKIKYFRKSKHFSLQEMADLLYKSKSTLSKYENGQISIDIETLYAIAKVLGVHVEQLLYSEP
  soluble fraction (log2): -5.12

## HMVSSAEQQARDKESGMILVQEAGGPDKARALVEKMRQDIRNPALDGTRRQMLRGHVARIELALAELETG
  soluble fraction (log2): -0.0254

## HMSAEGPALADWVVRDAHSIGAKITNSVAQLLIDRVGHNQQLLHNELQKLALVQTDISAELVKTMSHY
  soluble fraction (log2): -0.643

## HMKASTRELLDFVLSQRGVSTASVAKALGISVQNASTRLKKLSNEGLIIRSEASSLTGGIEFLYS
  soluble fraction (log2): -0.822

## HMFSMKDFGQRLRQLRKERGLTQGDLARLAKIDIMQVSRYERGLGLPSLETAIALARVLETSTDLLFLG
  soluble fraction (log2): -3.52

## HMSADLVYLRKRLQDAIAQLPENMRTAYTLFQIANRSIREISELTGASESLVKVRIHRAKGKLQKQLEDLK
  soluble fraction (log2): -1.43

## HMEELIEMNGVVMEILPDSRYRVTLDNGHKLIAYTGGKMKKNHIRILAGDKVTLELSPYDINNGRITFRHI
  soluble fraction (log2): -1.66

## HMDAMLGEALRLIRVYHDLKQKQAAERLEVSTSYLSEIERGLKTPTLDIIQRYATVFDMPVSSIMFFSENL
  soluble fraction (log2): -3.1

## HMSTSIADNSSITYKVRKGDSLASIAKRHGVNINDVMRWNSVITKASQIQPGDMLTLYVRDS
  soluble fraction (log2): 0.148

## HMQPADYSDLYAAAKSAGEADMRAAFALTDKQERTAAVNAARETIKAALSEEQLADANLGSALKKLEAGV
  soluble fraction (log2): -0.122

## HMDFSNVNFSQVSDSELDLLMRRASAQGYTQFDLLKIARAQGLTQAEIEKLDKRFKSAETVAYVAENA
  soluble fraction (log2): 0.0531

## HMTPVSQIATKDIEEKIDSLSDEYKDPFILHFKGFKYKEIADQLDIPIGTVKSRIFIARKKLIDLLPDY
  soluble fraction (log2): 0.0524

## HMLNDKLQTLFSLFPAVDKDLKKKGVTRQILWEQYKRNHPDGVGRSQFNYYYAQWKDQVNPT
  soluble fraction (log2): -1.02

## HMDAMLSEQLREKRGELLIEVDAIAGNALRWATLSAEQQDAWAVYRQALLDVPQQAGFPNDVVWPINPN
  soluble fraction (log2): -0.42

## HMYMWQVEDLLRANELDIENIKKTIIDHYQLDDAQKSELTRWYEDLINMMRLEGVTKEGHLQINK
  soluble fraction (log2): -2.02

## HMATPSTGQVSVVRLNLRVSPSISSPVVTRLTQGDTVKILAASDDGRWYKVATADGRTGWLYTIYITAE
  soluble fraction (log2): -1.34

## HMIYSKSDLELFGIKKIDVMEENILMLILSEYELDQTPKNILIDEAVRLSKKFGADNAYKFVNATLDTLL
  soluble fraction (log2): -1.15

## HMDTRQFWEQWVADEIRTFEHKDRKQLFGWFEGNKPKLGQMKKLGYGDLLTKVQTSWDEIYQQKE
  soluble fraction (log2): 0.0857

## HMVGDLPPQELRVFELIGDGLSNREIADEMILAEKTIKNYVTSLLQKLGMQRRTEAAAFAARLDER
  soluble fraction (log2): -0.0289

## HMDLANRSLDRGITILESLARNGASSLADLHRDSGIAKSTIRRLLGTLIQHRLVRRSVADGLYRVTIPLPA
  soluble fraction (log2): -1.42

## HMTDGYAMRLERLNSLEEYVLNKGTVSLEDLAERFGVSINTIRRDLNELISRGQIKKVYGGVSSLHD
  soluble fraction (log2): -0.252

## HMQGEAMQETVKKLDAFLQDNSVSMSALARALGVSPSLISQFRSGSYKGDSQAIAAKINSYIDNHNKKSK
  soluble fraction (log2): -0.0127

## HMRFDADELQKAYDLFDADENTPFKTIKQAYYALARRHHPDKNGDQEYFKVINNAFQLIQEHRRRRDN
  soluble fraction (log2): -0.437

## HMADIWDLLRSEYKLTETDVRMLTDMLPDELMNDFRSEVLALRDRMNRYKVNNPKSYVVTSLKNFIIQHTP
  soluble fraction (log2): -1.09

## HMNTAIDGLIEKVGMFAMEKKAISVDQVKENFSINGEQAESVIKQLETIGVLGKKNEDGTHTVM
  soluble fraction (log2): 0.159

## HMTEKQYIYSIGDRVNIGTDEFEIVNINEKEVSIADVTFPMLVKQISYEEFDRKVKENPFNDHLII
  soluble fraction (log2): -0.112

## HMPKETFLNLDEEKRQAIINVLLKNFSEQHISQVKVSAIVSGIGMSRGAFYKYFEDLEDAYRFTISYFSA
  soluble fraction (log2): 0.147

## HMINDPSALGQRAFVDELLWMAGYVPEKIEIYQTLPNNSRVYRVKLDSVNGGFIFIRWDKKKKEHYV
  soluble fraction (log2): 0.106

## HMIVVMKTSASERDLQEVIARIEQFGFATRSIVGSERATVSVLGAPLPDSLQEALERMPGVEEVVRITK
  soluble fraction (log2): -1.48

## HMVDYIGRRGVMLSTVSEEKMGNAEVVIDGNSYNIYVKSLDGSTIAYHQEILIINKSKDNNYFLVQIY
  soluble fraction (log2): -2.81

## HMDVQNLTKKNQEFINIVTHQLLQSGKSDEDIQTILAKTLPEIIEKQKQGIPARSFLGAPTAWAAQFI
  soluble fraction (log2): -0.0596

## HMITLPDFVGKDVETVKAWAKENGITLIVNKVEDSAKKDTVISQTPTTYDYSKIMKGSSFTVNVAKE
  soluble fraction (log2): 0.206

## HMSTPVPIEGQPTENLNLRDQPSTSGKILTTIPKGKTVTILSEKNANGWYKVSYNGKTGYVSGSYFKVTK
  soluble fraction (log2): 0.916

## HMFWRKIDFYGLNLSTYRNIINIGSDYNYIYLDLGNIYKILNPITGKIIEEQDLVMNIDNINWSS
  soluble fraction (log2): 0.283

## HMSVFGDNVARLRAEHGMSQRALAERLEITNGTVAAWESRDTLPDYDRIRQIAEIFDVPIPQLFAKYIP
  soluble fraction (log2): -1.54

## HMIDQIAEQLQQRLAVDTAFATIQRDYPDVIANKDIELLTAIKVNQKIAEGASRASAMLESAKEVYETL
  soluble fraction (log2): 0.196

## HMKQVSDTGAIDAAIREVMDANPDKVAEYRSGKDKLFGFFVGQIMRAMAGKAAPVVVNDRLKALLD
  soluble fraction (log2): 0.123

## HMTEKSTRSVPQEHEGKRLDVAAALLFPVYSRSELARRIDAGYLLLNGKGSTPKTKVHELDLIELLEV
  soluble fraction (log2): -0.601

## HMATEYIIPTVTNKKLEEAIGIAQLRGFEISVDEYKPSDIDEGTVLEQSPAAGTNAKQGDTISVTVSSG
  soluble fraction (log2): 0.476

## HMDYNMEEWSLTADQLKSGDTILILNLGKTATLLESTRGKKNVRVRMGNIKTIVETSSIRGNPHQ
  soluble fraction (log2): -1.77

## HMAIGSRLKVTTDATNLNIRSTPSTEGDIVGKAAHHEIVTLVEKTDDSWWKIKTNDGEEGYAYAQYLSPV
  soluble fraction (log2): -0.031

## HMDPKISWESDEKLSANIGHYENSIKPLMGNKYLIELSQLKDKIESHPWVARATIKRIFWNKIHIQLESHD
  soluble fraction (log2): -0.0642

## HMEKKEWVIYITGAVKKPGVYRIPEGARVYQALEAAGGFTPEADRDAVNLAAMLQDGAHIKFPAVGEEV
  soluble fraction (log2): -0.148

## HMDLDIQNYNLDEILELFKVSYDFDETELKKAHKMYLMTHPDKSNLNPNIFLFFVQAYDILRKLYEFR
  soluble fraction (log2): -0.691

## HMKTYEILFDILSRESDYISGEKLAQELGISRTSIWKAIQHLEKEGVHIESVKNKGYKLLSGDLLIAEKI
  soluble fraction (log2): -1.77

## HMHGESISVPDLRGQKMERMPAFLADKHLQFKVIDSLFDLEKNPGTVLEQDPAPNSKVKEGRTIYLTVNAQ
  soluble fraction (log2): -0.00257

## HMTVKEYNRAVDEYSDAVWRFIRGNLRDEDRANDIVQDSFEKLWMHVTEIDYSVAKSWLFSTAYNNMIDI
  soluble fraction (log2): -0.707

## HMHPTDMKLTARLEEGAQFVRTQQLSKAIEIFTEVIKLDQNWAEAWNKRATVFYMMGKFKQSQEDIDKVLA
  soluble fraction (log2): 0.0611

## HMTGKVSHGERKSVLVSLAGSMRARGMSIDAVRAGLYADNEKRFDPPLDERDIEDVLNSAKKWGDP
  soluble fraction (log2): -0.352

## HMTALTTEDLERRFYAKTYEGESAQKRLARLEISVFGELRQGRPESDRLHDLNNAVLEKERAALNAGAVG
  soluble fraction (log2): 0.063

## HMRYFDDEELNNKFLEFLSMRKKIRKPVRTDRALKALLKKLHELSGGDVGLMKQIIDQSLDKEWLGLFEL
  soluble fraction (log2): -0.889

## HMSAITLDQARAIALDHAGISEGDATFVKEQTGTSSYEIEFYSGSNEYDYEIDKATGAILNVDR
  soluble fraction (log2): 0.22

## HMGRKPVSPEIVERVLQLAKSNPDWGYEHIAGTMRYLGYNVSATTIRHILEANGIVPDPERRL
  soluble fraction (log2): -0.464

## HMTAPELSVGDYLEYRGKEYKVESLDMDGFITLTDTALEDAPRLISRVTFLTDEFIRSGEYMVIT
  soluble fraction (log2): -0.811

## HMPLLSPRQLDVLSLAAGGLSDAQIAGRLVLSESTVRVHFHHIIEKLGVTDRAGAIAWYEQSRS
  soluble fraction (log2): -2.05

## HMGGTTLIAKQATVTGDIQFSSNLDIEGRVVGAISVEPGKEAMLHVVEGGSVEGEIRVPSAVINGKVTGDI
  soluble fraction (log2): 0.0791

## HMLLTLPEDIITMVRQGTLSAGHARVLAGLESDEMKMTLARQTITNEWSVRQLENAVALMRKS
  soluble fraction (log2): -0.906

## HMGQVEVPDVVGMTQERAITTLTEAKLVAQIQLTPADVAKGLVAAQSPRAGLKIGEGSFVTIEVSTGPVI
  soluble fraction (log2): -0.306

## HMGVNNDIIKHRKLEFMIEMLPDTFTRKEANEIGEGLGISLATLTRYLSSDAFERTGHGRYRKKD
  soluble fraction (log2): -1.35

## HMRNTETMKEIQAFVEDYFFEYHQSPSMQKVADAIGTSKSTAYYYVMEMARNGMLHYDGKTIETPHTQKS
  soluble fraction (log2): -0.82

## HMEIEETKKNSRTKIPENFDYKLINGLSNEIRAKLELIRPIDLLQASRIDGMTPAALTLVHLWIKKYSG
  soluble fraction (log2): -1.52

## HMNNVDIMGRMVYDDQHREVINFGKYKGVLVTEVLKKDPGYFSWIQQGDFPSDMKRIMMAIKLRM
  soluble fraction (log2): -2.61

## HMNLLSPREKQSLTLYASGLTLREVASELKLSPNSVGKFISRGKFKLNKSGAIVNSKTSIYLELKKRNLI
  soluble fraction (log2): -0.147

## HMQIAGLDDIDNRIIDLLLKNGRASYSEIGAAVGLSRTAAKNRIRALEASGIIRGYQAILDPQA
  soluble fraction (log2): -0.708

## HMSLSDADVERLLEVAIDIESLEEREGLYYQANESEPYSGWGKLMYDSGQVERLVPYKDGRWEGLWTIW
  soluble fraction (log2): -1.07

## HMPMPQDEVSYALGLSIGQNFKASGIKAITSEDFIAGLQDALAEREPQMTTERAREVINQLFMRLQQEESE
  soluble fraction (log2): 0.323

## HMHYKLIIFENHTKSTSLDITPEQARQILGVTDYTPEQYEILAEITNRPASYFMDDLVDYYVD
  soluble fraction (log2): -2.33

## HMEQYFEDEELNDKFLEFLAMRKRVRKPVQTDRGMKMLLTSLHKLSGGDVGLMKQIIDQSLDNEWKKFVA
  soluble fraction (log2): -1.14

## HMDAEKHIVTPEAGLRLDRALTDALPNLSRSRVKQLINEGLVTTENKTITAPSYRVKYGDSFEISIPPPT
  soluble fraction (log2): -0.16

## HMEEDPVIAAQRFLNIFRQLHIFTAAKRKEFDELLLKQPASVKGMFASLPGGSVLQEYVNNLEQNAG
  soluble fraction (log2): -0.564

## HMLSAGETYTLGYLKASDGILFTAADGSEQTVMQRVQVRLYDNGDGTYTARLADDIAYSAVVTEDMIDK
  soluble fraction (log2): 0.27

## HMSEQMQVGELVFQLHRKAIKNLHINVLPPDGFVRVSAPQAMTETAIRTAVISRLPWIRRQQQAFAAQ
  soluble fraction (log2): -3.48

## HMREQAHEVAGKLGYPVMVKASAGGGGKGIRIVRTEDELDQAFEAAQSETKAAFGDDQMYMEKVI
  soluble fraction (log2): -0.0878
